According to US20130108609A1:

Molecular target: Snapin, endogenous, in LNCaP cells (human) (UniProt O95295)
Assay: cell-based or functional assay

UniProt O95295, sequence (O95295 2-136): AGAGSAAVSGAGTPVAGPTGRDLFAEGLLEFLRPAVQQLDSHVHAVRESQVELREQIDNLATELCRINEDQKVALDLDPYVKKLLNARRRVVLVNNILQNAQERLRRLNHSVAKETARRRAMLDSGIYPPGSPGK

Pearson's correlation coefficient of co-localization (double immunofluorescence, cell lamellipodia only): 0.68 | Pearson's correlation coefficient of co-localization (double immunofluorescence, whole cell): 0.485
Substance: human TMPAP stably expressed in LNCaP cells (LNCaP pMX TMPAP) (enzyme)
